Measured values from US20120082663A1 (Genentech, published 2012).
Changes are numbered by the printed parent chain. Numbers in names are those of the source.

Tests used:
[1] = target: T1, human HGF receptor Fc fusion (HGFR-Fc) (human, UniProt P08581 25-929, limits assumed); test: SPR (Biacore), monovalent affinity, HGFR-Fc; murine 5D5, monovalent affinity
T1 construct: Generated and used as an Fc fusion; also called HFGR-Fc; b-HGFR-Fc (biotinylated)

[2] = target: T1, human HGF receptor Fc fusion (HGFR-Fc); test: SPR (BIAcore-2000), HGFR-Fc immobilised on a CM5 chip, 1:1 Langmuir fit
Protocol: (§1) Affinity determinations were performed by surface plasmon resonance using a BIAcore™-2000. HGFR-Fc was immobilized (˜1000 response units (RU)) on a CM5 chip and varied concentrations of Fab (4 to 500 nM) in PBST were injected. After each injection the chip was regenerated using 100 mM HCl. Binding response was corrected by subtracting the RU from a blank flow cell. A 1:1 Languir model of simultaneous fitting of kₒₙ and koff was used for kinetics analysis.

[3] = target: T2, cMet-Ig protein (biotinylated) (UniProt P08581 25-929, biotinylated with NHS-X-biotin); test: electrochemiluminescent competition assay in solution: inhibition of 2.5 nM HGF-Tag (ruthenium-labelled HGF) binding to 5 nM cMet-biotin; antibody titrated
T2 construct: Purified cMet-Ig produced at Genentech; also called cMet-Ig-biotin; not shown: Ig part not described
Protocol: (§2) Purified cMet-Ig protein produced at Genentech (South San Francisco, Calif.) was biotinylated by incubating with 20-fold molar excess NHS-X-Biotin in 0.1 M NaHCO3, pH 8.5 using biotin-X-NHS (Research Organics, Cleveland, Ohio). Purified human 2-chain HGF produced at Genentech was labeled with BV-TAG (cat #110034) via NHS-ester chemistry according to manufacturer's directions (BioVeris International, Gaithersburg, Md.). cMet-Ig-biotin (500 ng/mL), HGF-Ruthenium Tag (250 ng/mL), and titrations of OA5D5 antibody ranging from 3333-0.21 nM of antibody were incubated together in a volume of 100 ul of assay diluent: PBS ±0.5% BSA/0.5% Tween 20/0.033% Proclin (Supelco Inc. Bellefonte Pa.). The mixtures were incubated in sealed polypropylene round bottom 96 well plates (Corning) for 2-4 hours at room temperature with shaking Streptavidin magnetic beads (Dynabeads, BioVeris) were added. Following a final 45 min incubation with vigorous shaking, the plates were read using a BioVeris M-Series instrument (BioVeris International, Gaithersburg, Md.).

[4] = target: human c-Met on cells (BaF3-hMet transfected with full-length human c-Met cDNA; A549 and H358 cells) (human, UniProt P08581 25-1390); test: cell-based or functional assay
[5] = target: canine HGF receptor (canine, UniProt Q75ZY9 25-935, limits assumed); test: cross-species binding test, method not described (data not shown)
[6] = target: murine (mouse) HGF receptor (murine (mouse), UniProt P16056 25-931, limits assumed); test: as above
[7] = target: T2, cMet-Ig protein (biotinylated); test: electrochemiluminescent competition assay: antibody (3333-0.21 nM) against HGF-Ruthenium Tag binding to cMet-Ig-biotin
Protocol: as §2

[8] = target: T1, human HGF receptor Fc fusion (HGFR-Fc); test: SPR (BIAcore-2000), Fab injected over immobilized HGFR-Fc; humanized clone (5D5 graft plus R94S) as Fab
Protocol: as §1
A library was generated in which each of the HVR regions of the 5D5 graft was soft randomized. This library was panned against immobilized HGFR-Fc for 4 rounds of selection. […] Analysis of this clone by phage ELISA indicated it had similar affinity to that of the monovalent affinity of murine 5D5. […] Thus this unexpected substitution restores full binding affinity to the 5D5 graft, and the 5D5 graft plus R94S (hu5D5.v1) represents a fully humanized antibody. […] MacCallum et al. (MacCallum et al. J. Mol. Biol. 262: 732-745 (1996)) have analyzed antibody and antigen complex crystal structures and found positions 93 and 94 of the heavy chain are part of the contact region thus it seems reasonable to include these positions in the definition of hypervariable region of H3 (HVR-H3) when humanizing antibodies.

[9] = target: T1, human HGF receptor Fc fusion (HGFR-Fc); test: SPR (BIAcore-2000), HGFR-Fc immobilised on a CM5 chip, Fab injected at 4 to 500 nM, 1:1 Langmuir fit
Protocol: as §1

[10] = target: T1, human HGF receptor Fc fusion (HGFR-Fc); test: SPR (Biacore), Fab over immobilized HGFR-Fc; reference hu5D5.v1
Protocol: as §1
Affinity maturation of hu5D5.v1 —To improve the affinity of hu5D5.v1, six phage display libraries were generated in the background of hu5D5.v1, each targeting a single HVR for soft randomization. To avoid re-selecting hu5D5.v1 from a potential high background of wild-type template, stop codons were introduced into the HVR to be mutated prior to generating each library. A solution sorting method was used to enhance the efficiency of the affinity-based phage selection process. By manipulating the biotinylated target concentration, reducing the phage capture time to lower backgrounds and the addition of unbiotinylated target to eliminate clones with faster off rates, high affinity clones can be proficiently selected. Lee et al., supra. […] After 4 rounds of selection, clones from each of the […] library pools were analyzed. […] Selected clones were screened by phage ELISA and then expressed as Fab protein and their affinity determined using Biacore. […]

[11] = target: T1, human HGF receptor Fc fusion (HGFR-Fc); test: SPR (BIAcore-2000), HGFR-Fc immobilised on a CM5 chip

B1: murine 5D5 anti-c-met antibody, monovalent form (Fab, V domains shown)
VH: QVQLQQSGPELVRPGASVKMSCRASGYTFTSYWLHWVKQRPGQGLEWIGMIDPSNSDTRFNPNFKDKATLNVDRSSNTAYMLLSSLTSADSAVYYCATYGSYVSPLDYWGQGTSVTVSS
VL: DIMMSQSPSSLTVSVGEKVTVSCKSSQSLLYTSSQKNYLAWYQQKPGQSPKLLIYWASTRESGVPDRFTGSGSGTDFTLTITSVKADDLAVYYCQQYYAYPWTFGGGTKLEIKR
notes: also called mu5D5; hybridoma 5D5.11.6 (ATCC HB-11895)
Question: Which results are given for B1?
Answer: Kd [1]: 8.3 nM; koff [2]: 0.000743 s⁻¹; kon [2]: 89800 M⁻¹ s⁻¹

B2: chimeric one-armed 5D5 antibody (Fab arm from the murine parent 5D5 antibody fused to a human Fc region) (antibody, V domains shown)
VH: B1 VH
VL: B1 VL
notes: also called rchOA5D5; chimeric one-armed antibody
Question: For B2, which IC50 [3] is on record?
Answer: 2.6 nM

B3: OA-5D5.v2 one-armed anti-Met antibody (antibody)
light: DIQMTQSPSSLSASVGDRVTITCKSSQSLLYTSSQKNYLAWYQQKPGKAPKLLIYWASTRESGVPSRFSGSGSGTDFTLTISSLQPEDFATYYCQQYYAYPWTFGQGTKVEIKRTVAAPSVFIFPPSDEQLKSGTASVVCLLNNFYPREAKVQWKVDNALQSGNSQESVTEQDSKDSTYSLSSTLTLSKADYEKHKVYACEVTHQGLSSPVTKSFNRGEC
heavy: not shown
chain: not shown
notes: also called rhuOA5D5v2; one-armed 5D5.v2
Question: For B3, which “inhibition of HGF receptor activation (KIRA, HGF-dependent Met phosphorylation in A549 cells); IC50 relative to comparator antibodies” value [4] is on record?
Answer: < 0.5 fold of the comparator's IC50

Question: And the “inhibition of cell proliferation in the presence of HGF (BaF3-hMet cells); IC50 relative to comparator antibodies” value [4]?
Answer: < 0.5 fold of the comparator's IC50

Question: Does B3 bind [5]?
Answer: no binding

Question: Does B3 bind [6]?
Answer: no binding

Question: And the “IC50 relative to comparator antibody (chimeric one-armed antibody, OA-5D5.v1)” value [7]?
Answer: < 0.5 fold of the comparator's IC50

Question: And the IC50 [3]?
Answer: 1 nM

B4: hu5D5.v1 (5D5 graft plus R94S), expressed as Fab (Fab, V domains shown)
VH: EVQLVESGGGLVQPGGSLRLSCAASGYTFTSYWLHWVRQAPGKGLEWVGMIDPSNSDTRFNPNFKDRFTISADTSKNTAYLQMNSLRAEDTAVYYCASYGSYVSPLDYWGQGTLVTVSS
VL: DIQMTQSPSSLSASVGDRVTITCKSSQSLLYTSSQKNYLAWYQQKPGKAPKLLIYWASTRESGVPSRFSGSGSGTDFTLTISSLQPEDFATYYCQQYYAYPWTFGQGTKVEIK
notes: Fab made in E. coli from the phage display vector (human CL and CH1); also called this clone
Question: For B4, which Kd [8] is on record?
Answer: 9.8 nM

Question: What about the koff [9] of the same binder?
Answer: 0.000507 s⁻¹

Question: What about the kon [9] of the same binder?
Answer: 51600 M⁻¹ s⁻¹

B5: OA-5D5.v1 one-armed anti-Met antibody (antibody, V domains shown)
VH: B4 VH
VL: B4 VL
notes: One-armed antibody named only as another antibody of the invention (OA-5D5.v1); Its constant domains and Fc polypeptides are not described; also called rhuOA5D5v1
Question: How did the IC50 [3] turn out when B5 was run?
Answer: 5.4 nM

B6: hu5D5.v2 (clone 78), expressed as Fab (Fab, V domains shown)
VH: B4 VH with S98T, G100R, S104T
VL: DIQMTQSPSSLSASVGDRVTITCKSSQSLLYTSSQKNYLAWYQQKPGKAPKLLIYWASTRESGVPSRFSGSGSGTDFTLTISSLQPEDFATYYCQQYYAYPWTFGQGTKVEIKR
notes: Differs from hu5D5.v1 by 94T, 96R and 100T (Kabat, VH); Fab made in E. coli from the phage display vector (human CL and CH1)
Question: Which results are given for B6?
Answer: fold affinity improvement (against hu5D5.v1) [10]: 13 fold; Kd [9]: 0.625 nM; koff [9]: 0.000147 s⁻¹; kon [9]: 236000 M⁻¹ s⁻¹

B7: 5D5 graft (direct HVR-graft of murine 5D5 into the human acceptor framework), displayed as an Fab on phage (Fab, V domains shown)
VH: B4 VH with S98R
VL: B4 VL
notes: subgroup III VH with R71A, N73T, L78A; grafted L1 24-34, L2 50-56, L3 89-97, H1 26-35, H2 49-65, H3 95-102; R at 94); In the assay it was a monovalent Fab-g3 fusion on phage with human CL and CH1 of the vector; also called direct HVR-graft of 5D5
Question: Does B7 bind [11]?
Answer: no binding (tested: 500 nM)
